From article PMC10313165

Legend:
[1] = biological target: rat CaMKIIα holoenzyme (wild type, not phosphorylated) (rat (Rattus norvegicus)) (UniProt P11275); assay: high-speed atomic force microscopy; 50 nM CaMKII and 800 nM CaM premixed in buffer B (50 mM tris-HCl pH 7.4, 150 mM KCl, 10 mM MgCl2) with 1 mM CaCl2, 30 °C, 5 min, no ATP; imaged in buffer A with 1 mM CaCl2 on pillar[5]arene-modified mica, 24-26 °C
[2] = biological target: rat CaMKIIα holoenzyme with pT286 (rat (Rattus norvegicus)) (UniProt P11275); assay: high-speed atomic force microscopy; 50 nM CaMKII and 800 nM CaM premixed in buffer B with 1 mM CaCl2 and 1 mM ATP, 30 °C, 5 min; imaged in buffer A with 1 mM CaCl2 and 1 mM ATP on pillar[5]arene-modified mica, 24-26 °C

fraction of Ca^2+/CaM bound longer than 60 s [1]: 41.1%
fraction of Ca^2+/CaM bound longer than 60 s [2]: 77.3%
Substance: rat calmodulin, 6xHis-tagged (Ca^2+-bound in the assays) (from UniProt P0DP29 1-149) (natural protein; other documents disagree on this pair)
